1 molecule from US20260049105A1, “SELECTIVE MC4R LIGAND FOR TREATING OBESITY AND COGNITIVE LOSS” (ARIZONA BOARD OF REGENTS ON BEHALF OF THE UNIVERSITY OF …, priority 2022, published 2026) can be followed below.

The assay deals with human melanocortin 4 receptor (human), P32245. Briefly: competition with 125I-NDP-α-MSH on whole HEK293 cells expressing hMC4R. The note with it: remark: other sources report otherwise.
Chain of human melanocortin 4 receptor (human), P32245 (P32245 whole entry): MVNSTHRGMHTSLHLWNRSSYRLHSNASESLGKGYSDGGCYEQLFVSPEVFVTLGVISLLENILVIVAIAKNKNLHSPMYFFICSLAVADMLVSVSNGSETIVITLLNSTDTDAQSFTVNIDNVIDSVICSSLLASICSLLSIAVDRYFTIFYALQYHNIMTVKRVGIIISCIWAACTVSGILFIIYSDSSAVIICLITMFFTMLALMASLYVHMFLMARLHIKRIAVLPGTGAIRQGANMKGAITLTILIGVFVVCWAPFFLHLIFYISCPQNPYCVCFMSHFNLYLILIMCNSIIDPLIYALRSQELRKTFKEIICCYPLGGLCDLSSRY

B1: Ac-Arg-cyclo[Asp-Pip-D-Phe(4-F)-βArg-Trp-Lys]-NH2 (peptide)
peptide: RDXFRWK
modifications: not fully specified; here or on the partner: N-terminal acetyl (Ac); C-terminal amide (NH2); cyclized through the side chains of Asp2 and Lys7; Pip at 3; D-Phe(4-F) at 4; βArg at 5
As to B1, the BE% (percent [125I]NDP-α-MSH displacement at 10 µM) was found to be 23%.
